± gives the uncertainty stated by the source.
B1: Spectrin alpha chain, erythrocytic 1, residues 979 to 1036; numbered along this chain, P02549 (parent)
chain: EQRVMALYDFQARSPREVTMKKGDVLTLLSSINKDWWKVEAADHQGIVPAVYVRRLAH
B2: Histidine--tRNA ligase, cytoplasmic, residues 8 to 45; numbered along this chain, P12081 (parent)
chain: EELVKLQGERVRGLKQQKASAELIEEEVAKLLKLKAQL

Variants of: B1
Experiment: abundance fitness (aPCA) (normalised: wild type 0, dead -1); higher = more abundant; growth selection in yeast, the domain comes from the species named
Conditions: Homo sapiens

Row | Variant | abundance fitness
1 | Q45T | 0.516 ± 0.14
2 | Q45A | -0.171 ± 0.13
3 | Q45V | 0.1 ± 0.17
4 | Q45S | -0.004 ± 0.094
5 | Q45D | -0.498 ± 0.27
6 | R54N | -0.668 ± 0.13
7 | R54G | -0.491 ± 0.16
8 | R54V | -0.53 ± 0.12
9 | R54M | -0.518 ± 0.26
10 | R54K | 0.257 ± 0.17
11 | R54P | -0.292 ± 0.49
12 | R54E | -0.254 ± 0.33
13 | R54H | 0.83 ± 0.17
14 | R54A | -0.351 ± 0.17
15 | R54S | -0.588 ± 0.29
16 | R54Q | 0.052 ± 0.26
17 | R54W | -0.668 ± 0.34
18 | R54L | -0.963 ± 0.19
19 | R54D | 0.095 ± 0.32
20 | V51A | 0.616 ± 0.075
21 | V51M | 0.149 ± 0.12
22 | V51L | -0.083 ± 0.12
23 | V51S | 0.579 ± 0.08
24 | V51D | 0.148 ± 0.26
25 | V51Y | -0.242 ± 0.1

Row | Variant | abundance fitness
26 | V51K | 0.525 ± 0.14
27 | V51I | 0.201 ± 0.17
28 | V51Q | 0.126 ± 0.19
29 | V51R | 0.643 ± 0.079
30 | V51G | 0.146 ± 0.099
31 | V51F | 0.246 ± 0.26
32 | V51H | 0.216 ± 0.26
33 | V51W | -0.18 ± 0.15
34 | V51E | -0.31 ± 0.24
35 | V51P | 0.173 ± 0.17
36 | A57C | -0.092 ± 0.15
37 | A57D | 0.507 ± 0.19
38 | A57T | -0.022 ± 0.43
39 | A57V | -0.47 ± 0.23
40 | A57Q | 0.18 ± 0.36
41 | A57N | 0.105 ± 0.47
42 | A57S | 0.236 ± 0.16
43 | A57P | 0.297 ± 0.14
44 | A57R | -0.053 ± 0.16
45 | A57K | 0.933 ± 0.21
46 | I47M | 0.561 ± 0.11
47 | I47A | -0.532 ± 0.32
48 | I47E | -0.727 ± 0.43
49 | I47C | -0.226 ± 0.41
50 | I47Y | 0.304 ± 0.23

Row | Variant | abundance fitness
51 | I47N | -0.25 ± 0.18
52 | I47F | 0.349 ± 0.21
53 | I47L | 0.065 ± 0.13
54 | I47V | 0.228 ± 0.16
55 | I47T | -0.701 ± 0.42
56 | I47S | -0.659 ± 0.23
57 | I47W | 0.461 ± 0.15
58 | K38E | 0.281 ± 0.19
59 | K38R | -0.033 ± 0.14
60 | K38G | -0.832 ± 0.41
61 | K38M | 0.083 ± 0.17
62 | K38F | 0.208 ± 0.25
63 | K38Q | 0.041 ± 0.24
64 | K38T | 0.373 ± 0.14
65 | K38S | -0.301 ± 0.096
66 | K38H | -0.016 ± 0.4
67 | K38W | -0.168 ± 0.076
68 | K38Y | -0.311 ± 0.28
69 | K38C | 0.284 ± 0.19
70 | K38A | -0.258 ± 0.29
71 | K38I | 0.097 ± 0.38
72 | K38V | 0.303 ± 0.061
73 | K38P | -0.701 ± 0.34
74 | D35P | -0.867 ± 0.42
75 | D35E | -0.364 ± 0.26

Row | Variant | abundance fitness
76 | D35M | -0.535 ± 0.26
77 | D35N | -0.182 ± 0.24
78 | D35Q | -0.697 ± 0.31
79 | D35A | -0.541 ± 0.096
80 | D35R | -0.326 ± 0.2
81 | D35S | -0.006 ± 0.18
82 | D35L | -0.685 ± 0.098
83 | D35K | -0.027 ± 0.16
84 | D35V | -0.037 ± 0.14
85 | D35T | -0.506 ± 0.27
86 | H58R | -0.078 ± 0.39
87 | H58P | 0.358 ± 0.2
88 | H58S | 0.088 ± 0.31
89 | H58Y | 0.141 ± 0.27
90 | V48L | -0.717 ± 0.19
91 | V48K | -0.56 ± 0.11
92 | V48W | -0.809 ± 0.29
93 | V48R | -0.551 ± 0.19
94 | V48C | -0.502 ± 0.29
95 | V48Q | -0.656 ± 0.12
96 | V48T | -0.727 ± 0.17
97 | V48A | -0.687 ± 0.17
98 | V48M | -0.556 ± 0.36
99 | V48G | -1.09 ± 0.33

Variants of: B2
Experiment: as above
Conditions: Homo sapiens

Row | Variant | abundance fitness
100 | L3E | 0.203 ± 0.091
101 | L3C | -0.896 ± 0.098
102 | L3G | -0.45 ± 0.1
103 | L3R | -0.258 ± 0.12
104 | L3D | -0.454 ± 0.11
105 | L3T | -0.024 ± 0.087
106 | L3A | -0.162 ± 0.069
107 | L3M | 0.156 ± 0.089
108 | L3W | -1.54 ± 0.12
109 | L3P | -0.729 ± 0.082
110 | L3K | -0.088 ± 0.11
111 | L3I | -0.086 ± 0.095
112 | L3S | -0.066 ± 0.067
113 | L3Q | 0.153 ± 0.1
114 | L3V | -0.366 ± 0.074
115 | L3F | -0.341 ± 0.099
116 | L3H | -0.362 ± 0.095
117 | L3Y | -0.549 ± 0.077
118 | L3N | -0.287 ± 0.096
119 | E2G | -0.868 ± 0.2
120 | E2K | -0.703 ± 0.16
121 | E2R | -0.661 ± 0.1
122 | E2M | -0.636 ± 0.11

Row | Variant | abundance fitness
123 | E2Y | -0.452 ± 0.11
124 | E2C | -1.08 ± 0.3
125 | E2I | -0.369 ± 0.087
126 | E2F | -0.274 ± 0.28
127 | E2Q | -0.472 ± 0.11
128 | E2P | -0.9 ± 0.11
129 | E2N | -0.049 ± 0.11
130 | E2H | -0.195 ± 0.079
131 | E2T | -0.591 ± 0.081
132 | E2V | -0.762 ± 0.085
133 | E2L | -0.632 ± 0.094
134 | E2S | -0.327 ± 0.085
135 | E2A | -0.665 ± 0.089
136 | E2W | -0.97 ± 0.098
137 | V4H | -0.463 ± 0.089
138 | V4P | -0.658 ± 0.092
139 | V4T | -0.19 ± 0.082
140 | V4S | -0.264 ± 0.077
141 | V4E | -0.139 ± 0.088
142 | V4M | -0.079 ± 0.092
143 | V4F | -0.109 ± 0.096
144 | V4D | -0.01 ± 0.13
145 | V4K | -0.568 ± 0.16

Row | Variant | abundance fitness
146 | V4Q | -0.563 ± 0.11
147 | V4N | -0.139 ± 0.094
148 | V4G | -0.227 ± 0.073
149 | V4R | -0.544 ± 0.077
150 | V4I | -0.013 ± 0.084
151 | V4L | -0.201 ± 0.083
152 | V4C | -0.46 ± 0.097
153 | E1L | -0.687 ± 0.098
154 | E1R | -0.992 ± 0.2
155 | E1H | -1.02 ± 0.45
156 | E1C | -1.18 ± 0.46
157 | E1V | -0.661 ± 0.086
158 | E1I | -0.132 ± 0.16
159 | E1W | -0.537 ± 0.17
160 | E1Y | -1.05 ± 0.24
161 | E1K | -0.165 ± 0.15
162 | E1M | -0.139 ± 0.15
163 | E1S | -0.737 ± 0.14
164 | E1A | -0.62 ± 0.12
165 | E1D | -0.377 ± 0.14
166 | E1F | -0.386 ± 0.24
167 | E1T | -0.692 ± 0.11
